Results published in the nanobody polyreactivity screen of Harvey et al. (2022).

Test: yeast display, Sf9 membrane polyspecificity reagent, FACS + sequencing; frameworks hold sequencing errors
Outline: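 Nanobodies came from a synthetic yeast display library in Saccharomyces cerevisiae BJ5465, induced with galactose for 36–48 hours and stained for 1 hour at 4 °C with 10% biotinylated, detergent-solubilized Sf9 membrane reagent. Cells were enriched on streptavidin microbeads and then FACS-sorted, with low and high (top ~1%) gates set on anti-HA fluorescence for expression and streptavidin fluorescence for reagent binding. Each polyreactivity label reflects the gate a clone came from. Genes were amplified by colony PCR, sequenced by MiSeq 2 × 250 and filtered by CDR length.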

Sequence | polyreactivity (PSR sort gate)
QVQLVESGGGLVQAGGSLRLSCAASGLIFPRNAMGWYRQAPGKERELVAAITSGGGTNYADSVKWRFTISRDNAKNTVYLQMNSLIPEDTAVYYCAADYSVASPDGPYVIYDYWGQGTQVTVSS | low polyreactivity
QVQLVESGGGLVQAGGSLRLSCAASGLIFPWNAMGWYRQAPGKERELVAAINGRDGSTYYADSVKGLFTISRDNAKNTVYLQMNSLKPEDTAVYYCAKGPSGVRTYREYDSWGQGPQVTVSS | low polyreactivity
QVQLVESGGGLVQAGGSLRLSCAASGLIFPYYAMGWYRQAPGKERELVAAISRSGDSTYYADSVKGRFTISRDNAKITVYLQMNSLKPEDTAFYYCAAVLSYSYVRYNYWGQGTQVNVSS | high polyreactivity
QVQLVESGGGLVQAGGSLRLSCAASGLIFQVYDMGWYRQAPGKERELVAAISSGSNTNYADSVKGRFTISRDNAKNTVYLQMNSLKPEDTAVYYCAASWGYGALTPDMGYWGQGTQVTVSS | low polyreactivity
QVQLVESGGGLVQAGGSLRLSCAASGLIFQWYAMGWYRQAPGKERELVAAITGSGGSTYYADSVKGRFTISRDNAKNTVYLQMNSLKPEDTAVYYCNAGASRRYGYWGQGTQVTVSS | high polyreactivity
QVQLVESGGGLVQAGGSLRLSCAASGLIFRAYAMGWYRQAPGKERELVAAITRSGGRTYYADSVKGRFTISRDNAKNTVYLQMNSLTPEDTAVYYCAAEYGNTYSSYTYDYWGQGTQVTVSS | high polyreactivity
QVQLVESGGGLVQAGGSLRLSCAASGLIFRAYAMGWYRQAPGKETELVAAITWNGGSTNYADSVKGRFTISRDNAKNTVYLQMHSLKPEDTAVYYCAAGSSRVFRKAGITRPSGLYYYWGQGTQVTVSS | high polyreactivity
QVQLVESGGGLVQAGGSLRLSCAASGLIFRAYGMGWYIQAPGKERELLAAITWNGGSTNYADSVKGRFTISRDNAKNTVYLQMNSLKPEDTAVYYCAARLAGRGSSSSRVVRTGGYWGQGTQVTVSS | high polyreactivity
QVQLVESGGGLVQAGGSLRLSCAASGLIFRDNTMGWYRQAPGKERELVAAINSGGGTSYADSVKGRFTISRDNAKNTVYLQMNSLKPEDTAVYYCAAAWWPYRYGTYYSQYDYWGQGTQVTVSS | low polyreactivity
QVQLVESGGGLVQAGGSLRLSCAASGLIFRLYAMGWYRQAPGKERELVAAISGGGGSTYYADSVKGRFTISRDNAKNTVYLQMNSLKPEDTAVYYCAATYSRGYWWSEYDYWGQGTQVTVSS | low polyreactivity
QVQLVESGGGLVQAGGSLRLSCAASGLIFRLYAMGWYRQAPGKERELVAAISVSGAITYYADSVKGRFTISRDNAKNTVYLLMNSLKPEDTAVYYCNAQAVFRRDGYVYWDVDYWGQGTQVTVSS | low polyreactivity
QVQLVESGGGLVQAGGSLRLSCAASGLIFRPYAMGWYRQAPGKERELVAGINSGGNTDYADTVKGRFTISRDNAKNTVYLQMNSLKPEDTAVYYCNREYQVTIYDYWGQGSQVTVSS | low polyreactivity
QVQLVESGGGLVQAGGSLRLSCAASGLIFRRNAMGWYRQAPGKERELVAAISRSSGSTYYADSVKGRFTISRDNAKNTVYLQMNSLKPEDTAVYYCAVHVWGTYGSWEYYYWGQGTQVTVSS | high polyreactivity
QVQLVESGGGLVQAGGSLRLSCAASGLIFRSYAMGWYRQAPGKERELVARISIRGGSTYYADSVKGRFTISRDNAKYTVYLQMNSLKPEDTAVYYCGAVGYFGGFRYDYWGQGTQVTVSS | high polyreactivity
QVQLVESGGGLVQAGGSLRLSCAASGLIFRTYTMGWYRQAPGKERELVAAISASGGRTYYADSVKGRFTISRDTAKNTVYLQMNRLKPEDTAVNYFNARVNYKGYDSWGQGTQVTVSS | high polyreactivity
QVQLVESGGGLVQAGGSLRLSCAASGLIFRTYTMGWYRQAPGKERELVATITRRGGTTYYADSVKGRFTISRDNAKNTVYLQMKSLKPEDTAVYYCAKSPYYTWKYDYWGQGTQVTVSS | high polyreactivity
QVQLVESGGGLVQAGGSLRLSCAASGLIFRYYAMGWYRQAPGKERELVAAISSSGTRTYYADSVKGRFTISRDNAKNTVYLQMNSLKPEDTSVYYCATENQNPTGGYWGQGTQVTVSS | high polyreactivity
QVQLVESGGGLVQAGGSLRLSCAASGLIFSGSAMGWYRQAPGKERELVAAITWSGGSTYYADSVKGRFTISRDNAKNSVYLQMNSQKPEDTAVYYCNAKFYQISRYGYWGQGTQVTVSS | high polyreactivity
QVQLVESGGGLVQAGGSLRLSCAASGLIFSLNAMGWYRHATGKERELVAAISSDDSTYYADSVKGRFTISRDNAKNNVYLQMNSLTPEDTAVYYCAAVQLVPGYVDSNDYYWGQGTQVTVSS | low polyreactivity
QVQLVESGGGLVQAGGSLRLSCAASGLIFSRYAMGWYRQAPGKEREFVAAINWNGGRTYYADSVKGRFTISRDNAKNTVYLQMNSLKPEDTAVYYCAATWIDYYVIYAYDYWGQGTQVTVSS | high polyreactivity
QVQLVESGGGLVQAGGSLRLSCAASGLIFSRYAMGWYRQGPGKERELVAASSGGGGSTYYADSVKGRFTISRDNAKNTVYLQMNSLKPEDTAVYYSARKYTRKIPASDYWGQGTQVTVSS | high polyreactivity
QVQLVESGGGLVQAGGSLRLSCAASGLIFSVYAMGWYRQAPGKERELVAAISWSGSTYYADSVKGRFTISRDNAKNTVYLQMNSLKPEDTAVYYCAAEYDYDHFYWMDYWGQGTQVTVSS | high polyreactivity

Sequence | polyreactivity (PSR sort gate)
QVQLVESGGGLVQAGGSLRLSCAASGLIFSWYAMGWYRQAPGKEREFVAGISKGGDSTYYADSVKGRFTISRDNAKNTVYLQMNSLKPEDTAVYYCAADWWQGTSHYWGGAYNYWGQGTQVTVSS | low polyreactivity
QVQLVESGGGLVQAGGSLRLSCAASGLIFSYNAMGWYRPATGNERELVATIRRVGSTNYADSVKGRFTISRDNAKITVYLQMNSLKPEDTAVYYCAARSLRYGRGMYYWGQGTQVTVSS | high polyreactivity
QVQLVESGGGLVQAGGSLRLSCAASGLIFSYYVMGWYRQAHGKERELVAAISRRGGSTYYADSVKGRFTISRDNAKNTVYLQMNSLKPEDTAVYYCNAQRNFKSITEYDYWGQGTQVTVSS | high polyreactivity
QVQLVESGGGLVQAGGSLRLSCAASGLIFSYYVMGWYRQAPGKERELVAAISRIGGSTYYADSVKGRFTISRDNAKNTVYLQMNSLKPEDTAVYYCAAYDLSPGSLTGGYYWGQGTQVTVSS | high polyreactivity
QVQLVESGGGLVQAGGSLRLSCAASGLIFTPYAMGWYRQAPGKESELVAAISSSGGTTYYADSVKGRFTISRDNAKNTVYLQMKSLKPEDTAVYYCAADTGYPGYYPEYYWGQGTQVTVSS | high polyreactivity
QVQLVESGGGLVQAGGSLRLSCAASGLIFTRNAMGWYRQAPGKERELVASISNSGGSTYYADSVKGRFTISRDNAKNTVYLQMNSLKPEDTAVYYCAAPTHLHGHGNQNEFYYWGQGTQVTVSS | low polyreactivity
QVQLVESGGGLVQAGGSLRLSCAASGLIFTRNAMGWYRQAPGKERELVATITWSGGRTYYADSVKGRFTISRDNAKNTVYLQMNSLKPEDTAVYYCAAASGPLTYTFFRNDYWGQGTQVTVSS | low polyreactivity
QVQLVESGGGLVQAGGSLRLSCAASGLIFTSYPMGWDRQAPGKERELVAAIDTSGGSTYYADSVKGRFTISRDNAKNTVYLQMNSLKPEDTAVYYCAATSTYRSYLEYDYWGQGTQVTVSS | low polyreactivity
QVQLVESGGGLVQAGGSLRLSCAASGLIFTTNAMGWSRPAPGTEREFVAAISPSGGSTYYADSVKGRFTISRDNAKNTVYLQMNSLKPEDTAVYYCAARYSPVWHKYYYWGQGTQVTVSS | high polyreactivity
QVQLVESGGGLVQAGGSLRLSCAASGLIFTTNAMGWYRQAPGKEREFVAAISPSGGSTYYADSVKGRFTISRDNAKNTVYLQMNSLKPEDTAVYYCAAAGWSARGYNYWGQGTQVTVSS | high polyreactivity
QVQLVESGGGLVQAGGSLRLSCAASGLIFTTYDMGWYRQAPGKERELVAAISASSDTTYYADSVKGRFTISRDNAKNTVYLQMNSLKPEDTAVYYCAADRFDFPTATGSNYWGQGTQVTVSS | low polyreactivity
QVQLVESGGGLVQAGGSLRLSCAASGLIFTYYAMGWYRQAPGKERELVAGISSGTNTNYADSVKGRFTISRDNAKNTVYLQMISLKPEDTAVYYCAKTRGYQFVAYGYWGQGTQVTVSS | low polyreactivity
QVQLVESGGGLVQAGGSLRLSCAASGLIFVHYDMGWYRQAPGKERELVAAISAGGGSTYYADSVKGRFTISRYNSKNTVYLQMNSLLPEDTAVYYCIARVVNYFRPRTGAREYDFWGQGTQGTVSS | high polyreactivity
QVQLVESGGGLVQAGGSLRLSCAASGLIFVINAMGCYRQAPGKERELVATISSGVSTNNADSVKGRFTISRDNAKNTVYLQMYSLKPEDTAVYYCNKGQTVSRGYRLYERFVYWGQGTQVTVSS | low polyreactivity
QVQLVESGGGLVQAGGSLRLSCAASGLIFVINAMGWYRQAPGTERELVATISSGVSTNYADSVKGRFTISRDNAKNTVYLQMNSLKPEDTAVYYCNKGQTVSRGYRLYERYVYWGQGTQVTVSS | low polyreactivity
QVQLVESGGGLVQAGGSLRLSCAASGLIFVRYAMGWYRQAPGKERELVATITWSGGTTYADSVKGRFTISRDNGKNTVYLQMNSLKPEDTEVYDCAVEWPAWTDSDYPVGGHAFGYWGQVTQVTVSS | low polyreactivity
QVQLVESGGGLVQAGGSLRLSCAASGLIFVVYAMGWYRQAPGKERELVAAISRSGGRTYYADSVKGRFTISRDNAKNTVYLQMNSLKPEDTAVYYCAARRYSTTFGRLFDYWGQGTQVTVSS | high polyreactivity
QVQLVESGGGLVQAGGSLRLSCAASGLIFVVYTMGWYRQAPGKERELVAAITGRGGSTYADSVKGRFTISRDNAKNTVYLQMNSLKPEDNAVYYCNRADYYGYRFRVYDRLDYWGQGTQVTVSS | low polyreactivity
QVQLVESGGGLVQAGGSLRLSCAASGLIFWGYTMGWYRQAPGKERELVAAISRSGGRTYYADSVKGRFTISRDNAKNTVYLQMNSLKPEDTAVYYCAARYYYWGQGTQVTVSS | high polyreactivity
QVQLVESGGGLVQAGGSLRLSCAASGLIFWLNAMGWYRQAPGKERELVAAISSSGGRTYYADSVKGRFTISRDNAKNTVYLQMNSLKPEDTAVYYCNRGQQGRGWWGYDYWGHGTQVTVSS | high polyreactivity
QVQLVESGGGLVQAGGSLRLSCAASGLIFWYNAMGWYRQAPGKEREFVAAITSDGGRTYYADSVKGRFTISRDNAKNTVYLQMNSLKPEDTAVYYCTARGYGYLGRKGGYSYGYYYWGQGTQVTVSS | low polyreactivity
